Source: US20160362460A1 (Pieris, published 2016)
Changes are numbered by the printed parent chain.

B1: lipocalin mutein SEQ ID NO: 65 (designed binder)
chain: QDSTSDLIPAPPLSKVPLQQNFQDNQFQGKWYVVGLAGNRILRDDQHPMPMYATIYELKEDKSYQVTSVISSHKKCLYPIATFVPGSQPGEFTLGNIKSYGDKWSYLVRVVSTNYNQHAMVFFKHADSNYESFSITLYGRTKELTSELKENFIRFSKSLGLPENHIVFPVPIDQCIDGSAWSHPQFEK
B2: lipocalin mutein SEQ ID NO: 66 (designed binder)
chain: B1 chain with D44L, K98R, W104T, S128T
B3: lipocalin mutein SEQ ID NO: 62 (designed binder)
chain: QDSTSDLIPAPPLSKVPLQQNFQDNQFQGKWYVVGLAGNRILRDDQHPMPMYATIYELKGDKSYNVTSVISSHKKCLYPIATFVPGSQPGEFTLGNIKSYGDKWSYLVRVVSTDYNQYAVVFFKHADSNYESFSITIYGRTKELASELKENFIRFSKSLGLPENHIVFPVPIDQCIDG
B4: lipocalin mutein SEQ ID NO: 94 (designed binder)
chain: QDSTSDLIPAPPLSKVPLQQNFQDNQFQGKWYVVGLAGNRILRQDQHPMPMYATIYELKEDKSYQVTSVISSHKKCLYPIATFVPGSQPGEFTLGNIKSYGDKVSYLVRVVSTNYNQHAMVFFKYADRNFESFSITLYGRTKELTSELKENFIRFSKSLGLPENHIVFPVPIDQCIDG
B5: lipocalin mutein SEQ ID NO: 61 (designed binder)
chain: B3 chain with D44L, K98R, W104T, S128T
B6: CTLA-4 specific lipocalin mutein (SEQ ID NO: 4) (designed binder)
chain: B3 chain with Q28H
notes: hNGAL (lipocalin 2) mutein

What follows are binders tested against T1, human CTLA-4 on transfected CHO-K1 cells (human, UniProt P16410 36-223) (assay: FACS competition: inhibition of 20 nM biotinylated CD80/B7.1 binding to CTLA-4-transfected CHO-K1 cells).
T1 construct: whole, on cells; also called CHO: CTLA-4; human CTLA-4 expressing CHO cells
T1 sequence (P16410 36-223): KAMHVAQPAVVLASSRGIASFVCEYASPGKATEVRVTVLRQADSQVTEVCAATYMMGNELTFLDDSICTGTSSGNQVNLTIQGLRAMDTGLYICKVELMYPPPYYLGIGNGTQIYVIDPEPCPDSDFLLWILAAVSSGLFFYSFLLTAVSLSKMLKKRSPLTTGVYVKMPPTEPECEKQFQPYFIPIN
Work on B1 yielded an EC50 of 7.8 nM. In the case of B2, the EC50 is reported as 7.4 nM. B3 was tested, and the EC50 was 6 nM. Work on B4 yielded an EC50 of 13.4 nM. Binder B5 has an EC50 of 9.3 nM. Binder B6 has an EC50 of 7.6 nM.

These binders were tested against T2, Human CTLA-4-Fc (Chimerigen, CHI-HF-210A4-M001) (human, UniProt P16410 37-162) (assay: SPR (Biacore T200), human CTLA-4-Fc captured by anti-human IgG-Fc, mutein as analyte, 1:1 fit).
T2 construct: Bought protein; also called hCTLA-4; not shown: Fc part of the bought fusion
T2 sequence (P16410 37-162 limits assumed, change not shown): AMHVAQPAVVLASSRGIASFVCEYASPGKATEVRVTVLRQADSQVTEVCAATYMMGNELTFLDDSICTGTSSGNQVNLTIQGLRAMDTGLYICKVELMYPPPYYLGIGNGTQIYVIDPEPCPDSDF
B1 was tested, and the Kd was 0.62 nM, the koff was 0.00044 s⁻¹ and the kon was 710000 M⁻¹ s⁻¹. For B2, the Kd was 1.8 nM, the koff was 0.0013 s⁻¹ and the kon was 750000 M⁻¹ s⁻¹. Work on B3 yielded a Kd of 0.36 nM, a koff of 0.00027 s⁻¹ and a kon of 750000 M⁻¹ s⁻¹. Work on B4 yielded a Kd of 1.8 nM, a koff of 0.00061 s⁻¹ and a kon of 340000 M⁻¹ s⁻¹. Binder B5 has a Kd of 0.94 nM, a koff of 0.00072 s⁻¹ and a kon of 770000 M⁻¹ s⁻¹. B6 showed a Kd of 0.35 nM, a koff of 0.00022 s⁻¹ and a kon of 640000 M⁻¹ s⁻¹.

What follows are binders tested against T1, human CTLA-4 on transfected CHO-K1 cells (assay: FACS competition on human CTLA-4-transfected CHO cells; blocked ligand 20 nM biotinylated human B7.1 Fc, detected with streptavidin-PE).
In the case of B6, the “IC50 (read off the curve)” value is reported as ~20 nM.

These binders were tested against T1, human CTLA-4 on transfected CHO-K1 cells (assay: FACS competition: inhibition of 20 nM B7.1 Fc-bio binding to human CTLA-4-transfected CHO cells).
Binder B6 has an IC50 of 23 nM.

What follows are binders tested against T1, human CTLA-4 on transfected CHO-K1 cells (assay: FACS competition on human CTLA-4-transfected CHO cells; blocked ligand 20 nM biotinylated human B7.1, streptavidin-phycoerythrin).
For B4, the “IC50 (read off the curve)” value was 10 to 20 nM.
